Key:
[1] = molecular target: T1, recombinant His-tagged 6xEMPD (6 times repeated EMPD of mouse mIgE) (Mus musculus (mouse), membrane IgE …); assay: ELISA
T1 chain: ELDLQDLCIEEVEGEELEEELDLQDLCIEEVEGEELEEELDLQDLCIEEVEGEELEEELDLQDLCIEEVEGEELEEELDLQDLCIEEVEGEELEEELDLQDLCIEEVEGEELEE

[2] = molecular target: T1, recombinant His-tagged 6xEMPD (6 times …); assay: SPR

B1: mAbA9, mouse monoclonal anti-mouse EMPD antibody of γ1 isotype (antibody, V domains shown)
VH: EVQLVESGGGLVQPGGSLRLSCATSGFTFTDYYMTWVRQPPGKALEWLGFIRNKANGYTTEYSASVKGRFTVSRDNSQSILYLQMNTLRAEDSATYYCASPIYYGSPSWLWTYWGQGTSVTVSS
VL: QIVLTQSPAIMAASLGQKVTMTCSASSSVSSSYLHWYQQKSGASPKPLIHRTSNLASGVPARFSGSGSGTSYSLTISSVEAEDDATYYCQQWSGYPLTFGAGTKLELK
In the case of B1, the “% competition at 10-fold molar excess of 6xEMPD” value [1] is reported as 43% and the Kd [2] is reported as 7.4 nM.

Source: paper PMC2959155 (Journal of immunology (Baltimore, Md. : 1950), 2008)
